Consider one molecule from patent US20160216269A1 (BIOCARE MEDICAL, published 2016).

This experiment has as its target T1, SOX10 epitope peptide QGGTAAIQAHYKSAH (human).
T1 construct: One of the overlapping peptides of about 15 amino acids covering human SOX10 147-253
T1 peptide: QGGTAAIQAHYKSAH
The experiment is described as follows: epitope mapping with overlapping SOX10 peptides, direct ELISA and dot blot. The source says:
In order to determine the peptide sequence of SOX10 that is recognized by anti-SOX10 antibodies such as BC34, epitope mapping may be conducted perhaps using two assays: direct ELISA and even dot blot. In an ELISA assay, the sensitivity and specificity of the anti-SOX10 [BC34] antibody may be determined by measuring the antibody titer at about 1:500 and about 1:1000. Overlapping peptides at a length of about 15 amino acids each, covering the human SOX10 protein sequence from perhaps 147 to 253 amino acids, may be used to determine a sequence of BC34 binding.
For orientation: In an ELISA, binding on a coated surface is turned into a signal by an enzyme label.

B1: mouse monoclonal anti-SOX10 antibody BC34 (antibody, V domains shown)
VH: QVTLKESGPGILQPSQTLSLTCSFSGFSLSTFLIGVGWIRQPSGKGLEWLAHIWWNDNKYYNTALKNRLTISKDTSNNQVFLKIASVDTTDTATYYCVRMAGIGGTDAMDYWGQGTSVTVSS
VL: DIVLTQSPASLAVSLGQRATISCRASEIVEYYGTNLLQWYQQKPGQPPKLLIYAASNVESGVPARFSGSGSGTDFSLNIHPVEEDDIAIYFCQQSRKVPWTFGGGTKLEIK
notes: also called anti-SOX10 antibody [clone BC34]; SOX10 [BC34]
Take B1: the binding result was “binds”.
